According to US20150299264A1:
No end group written: not given here.

Molecular target: 40 non-kinase enzyme assays, including phosphatases and proteases
Test: cell-based or functional assay
Conditions: scale: % inhibition of activity at 100 µM MMI-0100

YARAAARQARAKALARQLGVAA (also: acetate salt) [MMI-0100 peptide (…; SEQ ID NO: 1)]
inhibition of activity in enzyme assays in the presence and absence of 100 µM MMI-0100: < 50
